Results: PMC5353646, “Allosteric modulation of peroxisomal membrane protein recognition by farnesylation of the peroxisomal import receptor PEX19” (Nature Communications, 2017)
Substitutions are numbered along the chain they refer to. Names and notes keep the numbering of the source. “Also recorded” adds a separate entry of the source.

What was measured:
[1] = test system: PEX19-deficient human fibroblasts (ΔPEX19 T); assay: Functional complementation of PEX19-deficient fibroblasts (peroxisomal protein import); format: cell-based; settings: full-length PEX19 variants, 72 h after transfection
Source text: A bicistronic expression plasmid coding for eGFP-PTS1 and non-tagged PEX14 (pMF1220)[43] was kindly provided by Marc Fransen (Leuven, Belgium). pIRES2-HsPEX19-eGFP-PTS1 was constructed by replacing the open reading frame of PEX14 (BglII/SalI) with a DNA-cassette encoding the full-length open reading frame of human PEX19 as derived from BamHI/SalI digestion of pAH05 (ref. [44]). Single point mutations were introduced into the PEX19 sequence by Quickchange XL Site-directed Mutagenesis kit (Stratagene) using primer pairs (Supplementary Table 1). The bicistronic expression vectors coding for PEX19 variants and eGFP-PTS1 were transfected into the human cell-line ΔPEX19 T which was derived from PEX19-deficient Zellweger patient fibroblasts. ΔPEX19 T cells, characterized by a defect in peroxisome biogenesis were routinely authenticated by functional complementation assays as described below and checked for mycoplasma contamination using Venor GeM Advance Mycoplasm Detection Kit (Minerva Biolabs). The efficiency of transfection according to the Amaxa Cell Line Nucleofector Kit R protocol (Lonza Cologne AG) was always around 90%. After 72 h of transfection, cells were subjected to fluorescence and immunofluorescence microscopy using polyclonal antiserum against human PEX14 (ref. [45]) (1:400 diluted) or monoclonal antibodies against human PEX19 (BD Biosciences, MA5-17266 Thermo Scientific; 1:400 diluted). Statistical analysis was carried out from three independent transfections of each pIRES-PEX19-eGFP-PTS1 expression plasmid. Based on the appearance of eGFP-PTS1 fluorescence pattern, about 100 cells of each experiment were visually categorized into three classes, (i) full complementation of peroxisomal import as visualized by punctuate staining pattern, (ii) partial complementation as indicated by diffuse cytosolic staining with few dots, (iii) no complementation resulting in only cytosolic staining. All micrographs were recorded on a Zeiss Axioplan 2 microscope with a Zeiss Plan-Apochromat × 63/1.4 oil objective and an Axiocam MR digital camera, and were processed with AxioVision 4.6 software (Zeiss, Jena, Germany). The steady-state level of PEX19 expression was assessed by immunoblot analysis, using monoclonal mouse antibodies against HsPEX19 (BD Biosciences, MA5-17266; 1:1,000 diluted) (Supplementary Fig. 9).

[2] = Hydrophobic interaction chromatography; format: physicochemical; settings: Butyl Sepharose FF, linear decreasing (NH4)2SO4 650–0 mM, 20 ml, 280 nm; for elution volume after start of the gradient: 20 mM potassium phosphate, pH 6.5, 50 mM NaCl, 500 μg protein
Protocol: Purified PEX19 CTD and variants were adjusted to a buffer containing 650 mM (NH4)2SO4 and 500 μg protein was subjected to equilibrated Butyl Sepharose FF column (20 mM potassium phosphate, pH 6.5, 50 mM NaCl and 650 mM (NH4)2SO4). After washing, bound protein was eluted with linear decreasing (NH4)2SO4 concentrations (650–0 mM (NH4)2SO4, 20 ml). Eluted proteins were detected using 280 nm absorption. The binding strength is indicated by the elution volume and correlates with protein hydrophobicity.

B1: PEX19 I195K: full-length PEX19 variant I195K (protein, UniProt P40855 1-299, looked up, variant I195K)
chain: MAAAEEGCSVGAEADRELEELLESALDDFDKAKPSPAPPSTTTAPDASGPQKRSPGDTAKDALFASQEKFFQELFDSELASQATAEFEKAMKELAEEEPHLVEQFQKLSEAAGRVGSDMTSQQEFTSCLKETLSGLAKNATDLQNSSMSEEELTKAMEGLGMDEGDGEGNILPIMQSIMQNLLSKDVLYPSLKEKTEKYPEWLQSHRESLPPEQFEKYQEQHSVMCKICEQFEAETPTDSETTQKARFEMVLDLMQQLQDLGHPPKELAGEMPPGLNFDLDALNLSGPPGASGEQCLIM
modifications: full-length
- functional complementation (in words) [1]: impaired although less strongly
- cells showing restored peroxisomal protein transport (functional complementation) ([1]; at least 100 cells in three independent transfections, series of Fig. 3c): 23%

B2: PEX19 P273F/P274F: full-length PEX19 with two lid prolines replaced by phenylalanine (protein, UniProt P40855 1-299, looked up, variant P273F P274F)
chain: B1 chain with K195I, P273F, P274F
modifications: full-length
notes: full-length PEX19 with two lid prolines replaced by phenylalanine
- cells displaying import-competent peroxisomes (complementation rate) ([1]; 100 cells each of three independent transfections, series of Fig. 5d): 20%

B3: M179R: PEX19 CTD variant M179R (helix α1) (protein)
chain: GMDEGDGEGNILPIMQSIRQNLLSKDVLYPSLKEITEKYPEWLQSHRESLPPEQFEKYQEQHSVMCKICEQFEAETPTDSETTQKARFEMVLDLMQQLQDLGHPPKELAGEMPPGLNFDLDALNLSGPPGASGEQCLIM
modifications: left off: His6, end not stated, cleaved
- elution volume after start of the gradient [2]: 4.60 mL
- functional complementation (in words) [1]: not capable of rescuing the ΔPEX19 phenotype; also recorded: cannot restore peroxisomal biogenesis

B4: M255R farn: farnesylated PEX19 CTD variant M255R (protein, UniProt P40855 161-299, looked up, variant M255R)
chain: B3 chain with R19M, M95R
modifications: C-terminal domain farnesylated
- elution volume after start of the gradient [2]: 17.9 mL

B5: M179R farn: farnesylated PEX19 CTD variant M179R (protein, UniProt P40855 161-299, looked up, variant M179R)
chain: B3 chain
modifications: C-terminal domain farnesylated
- elution volume after start of the gradient [2]: 11.26 mL

B6: I195K farn: farnesylated PEX19 CTD variant I195K (protein, UniProt P40855 161-299, looked up, variant I195K)
chain: B3 chain with R19M, I35K
modifications: C-terminal domain farnesylated
- elution volume after start of the gradient [2]: 16.41 mL

B7: I195K: PEX19 CTD variant I195K (helix α2) (protein)
chain: B3 chain with R19M, I35K
modifications: farnesyl group on Cys296 (CaaX box); left off: His6, end not stated, cleaved
- elution volume after start of the gradient [2]: 8.40 mL
- ΔV, difference in elution volume between farnesylated and non-farnesylated protein ([2]; pH 6.5): 8.01 mL
